Results on one molecule are retold here after patent US12636342B2, “TARS derived from Akkermansia muciniphila or fragment thereof, and use thereof” (KOREA RESEARCH INSTITUTE OF BIOSCIENCE AND BIOTECHNOLOGY, priority 2020, dated 2026).

Assay [1] has as its system inflammatory bowel disease mouse model. As to the kind of experiment: DSS-induced inflammatory bowel disease mouse model, intramuscular injection. In kind it is in vivo. From the text: Further, AmTARS was intramuscularly injected into the mouse model to confirm the anti-inflammatory efficacy thereof.
Assay [2] deals with B cell-deficient μMut mice. As to the kind of experiment: DSS-induced inflammatory bowel disease in B cell-deficient μMut mice. The format is in vivo, mouse. As for the experimental part:
To determine whether the inflammatory bowel disease alleviation effect induced through the secretion of IL-10 cytokine by AmTARS corresponded to a B cell-mediated effect, DSS was administered to B cell-deficient μMut mice (μ heavy chain mutation mice, B cell depletion mice) by way of the same method as in Example 5 to induce inflammatory bowel disease, and AmTARS was administered.

The test system of assay [3] is Tg (NFκB:EGFP) zebrafish transgenic line. As to the kind of experiment: NF-κB activity in DSS-treated Tg (NFκB:EGFP) zebrafish larvae. In kind it is in vivo. To be noted: yolk injection at 3 dpf, 0.5% DSS, analysis at 6 dpf. As for the experimental part:
(A-E) Global gene expression analysis. Total mRNA from BMDMs treated with either AmTARS (0.5 μM) or Pam3 (10 ng ml-1) for 1 or 3 h was isolated and analyzed by RNA sequencing (A). Principle components analysis (PCA) of the gene expression profiles for each sample (B). Hierarchical clustering of gene expression profiles from each sample identified cluster 3 and 4 (C). Gene set enrichment analysis (GSEA) of clusters 3 and 4 with respect to terms related to inflammation (D). […] (F) Overview of the experimental procedures for zebrafish. The yolk of Tg (NFκB:EGFP) transgenic zebrafish larvae (3 dpf) was injected with PBS or AmTARS. Injected larvae were treated at 3 and 5 dpf with 0.5% DSS for 24 h, with a washing period with fresh water for 24 h in between. Sample collection and analysis of Tg (NFκB:EGFP)-based EGFP intensity were conducted at 6 dpf. (G) Representative confocal images showing NF-κB signaling in the mid-distal intestines of PBS- or AmTARS-injected larvae with or without DSS treatment. White dashed lines denote the boundaries of the intestines (based on merged DIC bright field images). (H) Bar graph comparing the fluorescence intensity of the mid-distal intestines of PBS- or AmTARS-injected larvae treated (or not) with DSS (n=32 per PBS group and n=35 per DSS group). […] P-values were calculated by unpaired and two-tailed Student's t-test. […]

In a further assay the test system is macrophages (F4/80+). Kind of assay: Identification of cells targeted by injected AmTARS (flow cytometry of PECs, colon immunofluorescence). In kind it is in vivo, mouse. The settings on record: Mac2 immunofluorescence, His-tagged AmTARS 0.2 mg kg-1, 1 day. On the procedure: To identify the cells targeted by AmTARS, mice with injected i.p. with fluorescently labeled AmTARS, and fluorescence-positive cells in peritoneal exudate cells (PECs), were analyzed by flow cytometry. […] Next, we used a Mac-2 immunofluorescence antibody to test whether i.p.-injected AmTARS targets intestinal macrophages. Intense expression of Mac2 was detected in colonic epithelium, as well as in macrophages located in the lamina propria.

In assay [4] the test system is mouse macrophage Raw264.7. As to the kind of experiment: Phosphorylation of signal transducers in LPS-treated Raw264.7. The format is cell-based. To be noted: Raw264.7, LPS, 0.5 to 3 hours. As for the experimental part: To determine which signaling pathway was involved in the anti-inflammatory effect by the immune cytokine secretion regulation of […], an inflammatory environment was created through LPS treatment on mouse macrophage Raw264.7 as mouse-derived immune cells, and then changes in phosphorylation of signal transducers involved in the regulation of immune cytokine secretion according to the presence or absence of […] treatment and the elapsed time (0.5 to 3 hours) were investigated. Raw264.7 cells were cultured in DMEM (Hyclone) containing 10% FBS and antibiotics.

The subject of assay [5] is mouse bone marrow-derived macrophages (BMDMs). Kind of assay: ELISA of immune cytokine secretion in LPS-treated BMDMs (inflammatory environment). The settings on record: LPS-induced inflammatory environment, 24 h. In kind it is cell-based. As for the experimental part:
To determine whether AmTARS affects immune cytokine secretion when cellular inflammation was induced, mouse bone marrow-derived macrophages BMDMs as mouse-derived immune cells and human macrophages THP1 as human-derived immune cells were cultured by way of the same method as in Example 2.
Specifically, the cultured BMDMs and THP1 were treated with lipopolysaccharide (LPS) to induce an inflammatory response and were simultaneously treated with AmTARS at 0.1 μM, 0.2 μM, and 0.5 μM for 24 h to obtain cell cultures. The obtained cell cultures were analyzed for immune cytokine secretion by way of the same method as in Example 2.
Next, BMDMs were treated with LPS to create an inflammatory environment by way of the same method as in Example 3, and then treated with each TARS (AmTARS, BfTARS, eTARS, and hTARS) to investigate the secretion of IL-10.
An inflammatory environment was created through LPS in BMDMs by way of the same method as in Example 3, and then the cells were treated with the four types of fragments, and the immune cytokine secretion was determined by ELISA.
In general terms: An ELISA detects its analyte on a solid surface through an enzyme-linked reagent.

Where [6] appears, read: intramuscularly injected at 0.4 mg/kg or more.

“Also recorded” adds a separate entry of the source.

B1: Akkermansia muciniphila-derived threonyl-tRNA synthetase (TARS) (protein)
chain: MSEHKERKTLEERQQMSDLERLRHSCAHVLATAICRLWPDAQLAGGPAVDNGFYYDVELDHRISTEDFERIEEEMKKVVKENQVFQKEVISRADAMKMAESGELGALGPRSEPSRFKIDLLNDIPEDEEISLYRNGDFTDLCAGPHVGRTGNCKAFKIMSVASAFYKGDKNRPMLQRIYGTCFPNRTQLDEHLERLEEARRRDHRKLGRELGLFCIDESVGQGLILWKPKGALIRRSLQDFITEELDKLGYSQVYTPNIGKLDLYRTSGHFPYYQESQYAPIPERDAMEKLSQEGASCAELFNGLATGTIEGYMLKPMNCPHHIKIYANDAHSYRDLPVRLAEFGTVYRWEQSGELGGMTRVRGFTQDDAHIFCTPDQLAGEIRQCLGIVKTIFGTLGMTDYRVRLSMRDPESDKYVGSPENWDKAEQALREAAEWLGADYSEEAGEAAFYGPKIDFIVRDAIGREWQLGTVQVDYNLPERFDLHYTGADNKPHRPVMVHRAPFGSMERFTGLLIEHFEGKFPTWLSPEQVRVLPISDKVTDVAAAHRTALAARGVRVTVDETPDKIGAKIRNARLDRVPYMLVLGQREAEDGTVSVRHRDKGDLGAMPFEQFADLVAREIAERHISPVI
modifications: Akkermansia muciniphila TARS
Turning to B1, the “damage to intestinal epithelial cells” value in assay [1] (intramuscular injection) is given as “alleviate the damage to intestinal epithelial cells”. Further, in assay [1] (setting [6]), the “intestinal length of the mouse model” value was “efficacy of decreasing the weight and intestinal length”; the “weight of the mouse model” value is “efficacy of decreasing the weight and intestinal length”. The “increase in B cells” value in assay [2] is given as “could not be shown”. Moreover, the “NF-κB activity in the distal intestine induced by repeated DSS treatment” value in assay [3] was “significantly dampened”. Moreover, the “co-localization of administered AmTARS (His) in the colon” value in the assay with macrophages (F4/80+) is recorded as “co-localized mainly with macrophages in the lamina propria”. Further, in assay [4], the “extracellular signal-regulated kinase (ERK)” value is on record as “not affected”, the “phosphorylation of NF-kB” value is recorded as “distinctive differences in phosphorylation from a control from 2 h”, the “phosphorylation of c-Jun N-terminal kinase (JNK)” value is “affected through the regulation of phosphorylation from 30 min” and the “phosphorylation of p38” value is given as “distinctive differences in phosphorylation from a control from 2 h”. Moreover, in assay [5], the “secretion of IL-6” value is recorded as “suppressed; also recorded: reduced in a dose-dependent manner”, the “secretion of IL-10” value is reported as “increased IL-10 levels; also recorded: increased in a dose-dependent manner; also recorded: increased in a protein concentration-dependent manner” and the “secretion of TNF-α” value is recorded as “suppressed; also recorded: reduced in a dose-dependent manner”.
